# According to patent US20260297200 (published 2026):
# T1: mouse EGFR-His (mouse)
# T1 chain: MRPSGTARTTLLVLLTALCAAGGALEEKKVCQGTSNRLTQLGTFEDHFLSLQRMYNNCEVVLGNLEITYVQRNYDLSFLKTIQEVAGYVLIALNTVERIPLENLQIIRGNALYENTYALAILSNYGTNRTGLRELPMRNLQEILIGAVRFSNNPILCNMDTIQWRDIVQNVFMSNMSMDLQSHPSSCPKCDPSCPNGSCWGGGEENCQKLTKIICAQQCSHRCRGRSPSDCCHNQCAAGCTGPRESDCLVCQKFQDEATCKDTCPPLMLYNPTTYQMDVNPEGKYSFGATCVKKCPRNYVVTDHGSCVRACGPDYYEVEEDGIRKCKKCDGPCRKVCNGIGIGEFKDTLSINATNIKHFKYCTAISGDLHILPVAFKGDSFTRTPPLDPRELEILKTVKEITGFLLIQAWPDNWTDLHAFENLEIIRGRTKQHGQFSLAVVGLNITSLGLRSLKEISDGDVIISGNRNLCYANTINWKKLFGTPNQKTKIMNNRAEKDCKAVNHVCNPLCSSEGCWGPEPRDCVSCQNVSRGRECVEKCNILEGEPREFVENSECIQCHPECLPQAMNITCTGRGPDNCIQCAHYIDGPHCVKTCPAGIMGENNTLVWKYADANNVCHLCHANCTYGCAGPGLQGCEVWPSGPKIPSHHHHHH
# B1: Necitumumab (antibody, V domains shown)
# VH: QVQLQESGPGLVKPSQTLSLTCTVSGGSISSGDYYWSWIRQPPGKGLEWIGYIYYSGSTDYNPSLKSRVTMSVDTSKNQFSLKVNSVTAADTAVYYCARVSIFGVGTFDYWGQGTLVTVSS
# VL: EIVMTQSPATLSLSPGERATLSCRASQSVSSYLAWYQQKPGQAPRLLIYDASNRATGIPARFSGSGSGTDFTLTISSLEPEDFAVYYCHQYGSTPLTFGGGTKAEIKR
# B2: eIg 1+1 H10x5D5 MET arm (antibody, V domains shown)
# VH: EVQLVESGGGLVQPGGSLRLSCAASGYTFTSYWLHWVRQAPGKGLEWVGMIDPSNSDTRFNPNFKDRFTISADTSKNTAYLQMNSLRAEDTAVYYCATYRSYVTPLDYWGQGTLVTVSS
# VL: DIQMTQSPSSLSASVGDRVTITCKSSQSLLYTSSQKNYLAWYQQKPGKAPKLLIYWASTRESGVPSRFSGSGSGTDFTLTISSLQPEDFATYYCQQYYAYPWTFGQGTKVEIKR
# B3: Panitumumab (antibody, V domains shown)
# VH: QVQLQESGPGLVKPSETLSLTCTVSGGSVSSGDYYWTWIRQSPGKGLEWIGHIYYSGNTNYNPSLKSRLTISIDTSKTQFSLKLSSVTAADTAIYYCVRDRVTGAFDIWGQGTMVTVSS
# VL: DIQMTQSPSSLSASVGDRVTITCQASQDISNYLNWYQQKPGKAPKLLIYDASNLETGVPSRFSGSGSGTDFTFTISSLQPEDIATYFCQHFDHLPLAFGGGTKVEIKR
# Assays:
# EGFR-moFc S442R = EGFR-moFc S442R (human); experiment: ELISA
# MET-huFc = MET-huFc (human); experiment: ELISA
# mouse EGFR-His = biological target: T1, mouse EGFR-His; experiment: ELISA, 10 nM
binder,measurement,setting,value
B1,binding result,EGFR-moFc S442R,no binding
B2,EC50,MET-huFc,4.1 nM
B3,binding result,mouse EGFR-His,no binding
